Measured values: patent CN113150161A

Molecular target: 小菜蛾钙黏蛋白毒素结合区(PxCad-TBR) (小菜蛾 (Plutella xylostella))
Test: competitive ELISA on coated PxCad-TBR, 500 μg/mL Cry2Aa, competitor 2G4 (3.75 μg/mL, molar ratio 294:1)

Substance “活化Cry2Aa毒素(分子量68 kDa) (from UniProt P0A377 50-633)” has a 抑制作用 (%) of 44%.
